Experiment [1] has as its target T1, human Factor H (human, UniProt P08603 19-1231).
T1 construct: Purified human FH bought from CompTech; added in solution at 10 ug/mL in the ELISA and 40 ug/mL in the cleavage assay; also called FH; human FH
Kind of experiment: ELISA, immobilized recombinant protein, FH in solution.

Experiment [2] concerns the target T1, human Factor H. Nature of the experiment: ELISA, immobilized recombinant protein, human FH 10 ug/mL.

T1 sequence (P08603 19-1231 limits assumed): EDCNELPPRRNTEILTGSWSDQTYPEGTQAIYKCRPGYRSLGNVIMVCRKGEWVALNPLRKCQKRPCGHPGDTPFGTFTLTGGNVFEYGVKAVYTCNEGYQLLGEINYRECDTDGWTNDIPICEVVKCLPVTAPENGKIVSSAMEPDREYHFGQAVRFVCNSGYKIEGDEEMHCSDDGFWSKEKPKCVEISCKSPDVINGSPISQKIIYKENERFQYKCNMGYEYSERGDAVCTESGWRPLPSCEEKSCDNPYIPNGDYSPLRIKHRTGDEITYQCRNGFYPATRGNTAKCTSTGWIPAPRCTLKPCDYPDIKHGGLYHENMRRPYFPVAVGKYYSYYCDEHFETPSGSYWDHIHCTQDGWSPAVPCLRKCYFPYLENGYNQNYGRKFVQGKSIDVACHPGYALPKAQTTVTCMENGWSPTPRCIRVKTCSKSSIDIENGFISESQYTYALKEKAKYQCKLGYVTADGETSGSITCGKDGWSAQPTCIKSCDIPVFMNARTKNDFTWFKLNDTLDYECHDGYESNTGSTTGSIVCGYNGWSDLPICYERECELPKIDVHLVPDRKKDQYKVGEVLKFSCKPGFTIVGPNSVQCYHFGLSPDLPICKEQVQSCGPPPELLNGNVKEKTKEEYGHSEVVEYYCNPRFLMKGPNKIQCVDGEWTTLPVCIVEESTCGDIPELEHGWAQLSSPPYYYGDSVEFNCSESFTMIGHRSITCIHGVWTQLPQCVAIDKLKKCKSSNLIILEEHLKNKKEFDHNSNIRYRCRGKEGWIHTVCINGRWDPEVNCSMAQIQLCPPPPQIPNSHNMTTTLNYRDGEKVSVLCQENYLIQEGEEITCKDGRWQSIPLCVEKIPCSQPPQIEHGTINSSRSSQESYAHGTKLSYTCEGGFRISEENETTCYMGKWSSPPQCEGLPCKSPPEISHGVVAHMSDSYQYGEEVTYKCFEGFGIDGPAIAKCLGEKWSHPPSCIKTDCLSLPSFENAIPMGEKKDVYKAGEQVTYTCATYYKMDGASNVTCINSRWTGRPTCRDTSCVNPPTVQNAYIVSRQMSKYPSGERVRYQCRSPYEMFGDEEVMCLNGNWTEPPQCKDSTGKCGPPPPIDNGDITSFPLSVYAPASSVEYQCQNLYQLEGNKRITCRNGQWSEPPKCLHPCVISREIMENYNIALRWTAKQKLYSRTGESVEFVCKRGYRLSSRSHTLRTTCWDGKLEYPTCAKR

B1: FhbB1 of strain 35405, E45A site-directed mutant (receptor)
chain: TFKMNTAQKAHYEKFINALENALKTRHIPAGAVIDMLAEINTEALALDYQIVDKKPGTSIAQGTKAAALRKRFIPKKIKA
notes: also called FhbB135405 mutant; not shown: N-terminal hexa-histidine tag from vector pET46-Ek LIC
Turning to B1, the binding result with human Factor H [1] was “no binding (tested: 10 µg mL^-1 human FH)”.

B2: FhbB3 of strain 35404, E45A or D58A site-directed mutant (receptor)
chain: FKMNTAQNAHYEAFISGLERGAKDNPMLAQVVKAGLDLANDGAAALNYKIVDKKPGTDIAKGTKAAELRKRFIPKKIKT
notes: also called FhbB335404 mutant; not shown: N-terminal hexa-histidine tag from vector pET46-Ek LIC
Consider B2, for which the binding result with human Factor H [1] is listed as “no binding (tested: 10 µg mL^-1 human FH)”.

B3: FhbB3 of strain 33521, E45A or D58A site-directed mutant (receptor)
chain: FKMNTAQKAHYEAFISGLENAVKDNPMTAQNVKEGLDLANVGAAALNFKIVDKKAGTEIAKGTKAAELRKRFVPKKKA
notes: also called FhbB333521 mutant; not shown: N-terminal hexa-histidine tag from vector pET46-Ek LIC
For B3, the binding result in the experiment with human Factor H [1] is listed as “no binding (tested: 10 µg mL^-1 human FH)”.

B4: FhbB-ch5 pentavalent chimeric (FhbB135405-FhbB2SP50-FhbB333521-FhbB335404-FhbB3SP64, mutated) (other)
chain: TFKMNTAQKAHYEKFINALENALKTRHIPAGAVIDMLAEINTEALALDYQIVDKKPGTSIAQGTKAAALRKRFIPKKIKAFKMNTAQKAHYEAFIKVLEKAAERNPIDAQVVVEALGAVNIDALAKNLNYQVIDKKPGTDIATGTKAAELRKRFVPKKIKAFKMNTAQKAHYEAFISGLENAVKDNPMTAQNVKEGLDLANVGAAALNFKIVDKKAGTEIAKGTKAAELRKRFVPKKKAFKMNTAQNAHYEAFISGLERGAKDNPMLAQVVKAGLDLANDGAAALNYKIVDKKPGTDIAKGTKAAELRKRFIPKKIKTFKMNTAQKAHYEAFIADLERAAKDNPMPAHIVKAGLDAANAIAATLNFKIVDKKAGTEIAKGTKAAELRKRFVPKKK
notes: purified on nickel; not shown: N-terminal hexa-histidine tag from vector pET46-Ek LIC
B4: the binding result with human Factor H [2] is on record as “binds”.

B5: FhbB2 of strain SP50, E45A or D58A site-directed mutant (receptor)
chain: FKMNTAQKAHYEAFIKVLEKAAERNPIDAQVVVEALGAVNIDALAKNLNYQVIDKKPGTDIATGTKAAELRKRFVPKKIKA
notes: also called FhbB2SP50 mutant; not shown: N-terminal hexa-histidine tag from vector pET46-Ek LIC
For B5, the binding result with human Factor H [1] is “no binding (tested: 10 µg mL^-1 human FH)”.

B6: FhbB-ch4 tetravalent chimeric (FhbB135405-FhbB2SP50-FhbB333521-FhbB335404, mutated) (other)
chain: TFKMNTAQKAHYEKFINALENALKTRHIPAGAVIDMLAEINTEALALDYQIVDKKPGTSIAQGTKAAALRKRFIPKKIKAFKMNTAQKAHYEAFIKVLEKAAERNPIDAQVVVEALGAVNIDALAKNLNYQVIDKKPGTDIATGTKAAELRKRFVPKKIKAFKMNTAQKAHYEAFISGLENAVKDNPMTAQNVKEGLDLANVGAAALNFKIVDKKAGTEIAKGTKAAELRKRFVPKKKAFKMNTAQNAHYEAFISGLERGAKDNPMLAQVVKAGLDLANDGAAALNYKIVDKKPGTDIAKGTKAAELRKRFIPKKIK
notes: purified on nickel; also called Fhb-ch4; not shown: N-terminal hexa-histidine tag from vector pET46-Ek LIC
Consider B6, for which, in the experiment with human Factor H [1], the binding result is “no binding (tested: 10 µg mL^-1 human FH)”.

B7: FhbB3SP64E45A/D58A (receptor)
chain: FKMNTAQKAHYEAFIADLERAAKDNPMPAHIVKAGLDAANAIAATLNFKIVDKKAGTEIAKGTKAAELRKRFVPKKK
notes: also called FhbBSP64E45A/D58A; FhbB3SP64 mutant; not shown: N-terminal hexa-histidine tag from vector pET46-Ek LIC
Regarding B7, the binding result with human Factor H [2] was “binds”.

The values are drawn from patent publication US20230355734A1 (VIRGINIA COMMONWEALTH UNIVERSITY, published 2023).
